Source: EP1562972B1 (Facet Biotech Corporation, dated 2010)

How the values were obtained:
[1] = biological target: T1, human neonatal Fc receptor (FcRn), recombinant GPI-linked, on NS0 cells (human, UniProt P55899 24-297; P61769 21-119); assay: competition flow cytometry, NS0 cells with human FcRn, vs biotinylated OST577-IgG2M3, FBB pH 6.0
T1 construct: Expressed from vector pDL208 on the surface of NS0 cells; also called human FcRn; HuFcRn; not shown: human c-myc decapeptide flanked by linker peptides, then GPI linkage signal of human decay accelerating factor (vector p)

[2] = biological target: T1, human neonatal Fc receptor (FcRn), …; assay: competition flow cytometry, NS0 cells with human FcRn, vs biotinylated HuEP5C7-IgG2M3, FBB pH 6.0
[3] = biological target: T1, human neonatal Fc receptor (FcRn), …; assay: competition flow cytometry, NS0 cells with human FcRn, vs biotinylated HuEP5C7-IgG2M3, FSB pH 6.0
[4] = biological target: T2, rhesus neonatal Fc receptor (FcRn), recombinant GPI-linked, on NS0 cells (rhesus, UniProt H9Z6D2 24-297; Q6V7J5 21-119, GPI-linked at the C-terminus); assay: competition flow cytometry, NS0 cells with rhesus FcRn, vs biotinylated OST577-IgG1, FBB pH 6.0
T2 construct: Expressed from vector pDL410 on the surface of NS0 cells; also called rhesus FcRn; RhFcRn; not shown: human c-myc decapeptide flanked by linker peptides, then GPI linkage signal of human decay accelerating factor (vector p)

[5] = biological target: T1, human neonatal Fc receptor (FcRn), …; assay: competition flow cytometry, NS0 cells with human FcRn, vs biotinylated OST577-IgG1, FBB pH 6.0
[6] = biological target: T1, human neonatal Fc receptor (FcRn), …; assay: as above; remark: listed apart in the source

B1: OST577-IgG2M3 wild-type antibody (antibody)
chain 1: QVQLVESGGGVVQPGRSLRLSCAASGFTFSRYGMHWVRQAPGKGLEWVAVISYDGSNKWYADSVKGRFTISRDNSKNTLFLQMHSLRAADTGVYFCAKDQLYFGSQSPGHYWGQGTLVTVSSASTKGPSVFPLAPCSRSTSESTAALGCLVKDYFPEPVTVSWNSGALTSGVHTFPAVLQSSGLYSLSSVVTVPSSNFGTQTYTCNVDHKPSNTKVDKTVERKCCVECPPCPAPPAAAPSVFLFPPKPKDTLMISRTPEVTCVVVDVSHEDPEVQFNWYVDGVEVHNAKTKPREEQFNSTFRVVSVLTVVHQDWLNGKEYKCKVSNKGLPAPIEKTISKTKGQPREPQVYTLPPSREEMTKNQVSLTCLVKGFYPSDIAVEWESNGQPENNYKTTPPMLDSDGSFFLYSKLTVDKSRWQQGNVFSCSVMHEALHNHYTQKSLSLSPSK
chain 2: SYVLTQPPSVSVAPGQTARITCGGDNIGSKSVNWFQQKPGQAPVLVVYDDNERPSGISERFSGSNSGNTATLTISRVEAGDEADYYCQVWDSSSDHVVFGGGTKLTVLGQPKAAPSVTLFPPSSEELQANKATLVCLISDFYPGAVTVAWKADSSPVKAGVETTTPSKQSNNKYAASSYLSLTPEQWKSHRSYSCQVTHEGSTVEKTVAPTECS
- IC50 [1]: 11.9 µg/mL
- Relative Binding [1]: 1 ratio (IC50 wild-type / IC50 mutant)
- IC50 [2]: 9.4 µg/mL
- Relative Binding [2]: 1 ratio (IC50 wild-type / IC50 mutant)
- IC50 [3]: 10.7 µg/mL
- Relative Binding [3]: 1 ratio (IC50 wild-type / IC50 mutant)

B2: OST577-IgG1 wild-type antibody (antibody)
chain 1: not shown
chain 2: SYVLTQPPSVSVAPGQTARITCGGDNIGSKSVNWFQQKPGQAPVLVVYDDNERPSGISERFSGSNSGNTATLTISRVEAGDEADYYCQVWDSSSDHVVFGGGTKLTVLGQPKAAPSVTLFPPSSEELQANKATLVCLISDFYPGAVTVAWKADSSPVKAGVETTTPSKQSNNKYAASSYLSLTPEQWKSHRSYSCQVTHEGSTVEKTVAPTECS
- IC50 [4]: 8.86 µg/mL
- Relative Binding [4]: 1 ratio (IC50 wild-type / IC50 mutant)
- IC50 [5]: 10.3 µg/mL
- Relative Binding [5]: 1 ratio (IC50 wild-type / IC50 mutant)
- IC50 [6]: 13.9 µg/mL
- Relative Binding [6]: 1 ratio (IC50 wild-type / IC50 mutant)
